Results taken from US8263133B2, “Multivalent clustering targeting strategy for drug carriers” (The Regents of the University of California, priority 2009, dated 2012).
Where no end group is shown, it is not given here.

Experiments:
αvβ3 integrins = biological target: T1, αvβ3 integrins (Homo sapiens, UniProt P05106+P06756); experiment: Anti-adhesion assay on vitronectin-coated wells; format: cell-based; conditions: HeLa cells
T1 construct: host or cells: HeLa cells, harvested by scraping
Protocol: HeLa cells (ATCC, Manassas, Va.) were cultured in DMEM medium (Invitrogen, Carlsbad, Calif.) supplemented with 10% Bovine Growth Serum (BGS, Hyclone, Logan, Utah). The cells were cultured at 37° C., with 98% humidity and 5% CO2. Cells were regularly subcultured using trypsin. 96-well plates were coated with human vitronectin by incubating a vitronectin solution (50 μL of 3 μg/mL, Invitrogen, Carlsbad, Calif.) in the well for 12-hrs at 37° C. The wells were washed three times with PBS and blocked with BSA (50 μL of 2% BSA in PBS) for 30 minutes at 37° C. The wells were washed three times with PBS and 100 μL/well of serum-free DMEM was added before chilling on ice. HeLa cells were harvested by scrapping using cell scrapers (USA Scientific, Ocala, Fla.), pelleted, and resuspended in ice cold serum-free DMEM to 400,000 cells/mL. 200 μL of serum-free DMEM was added to 50 μL of Au-Cap-RGD solution and vortexed before 250 μL of cell solution was added to the cells and placed in ice for 15 minutes. 100 μL/well of cell solution was added and allowed to incubate at 37° C. for 50 minutes. The plate was submerged in PBS in a Ziploc bag and centrifuged upside down for 10 minutes at 250 g. The plate was washed gently with additional PBS and removed. Remaining liquid was removed from the wells. The cells were fixed using 4% paraformaldehyde solution for 15 minutes and washed 3 times with PBS. Crystal violet solution was added to each well and incubated for 1 hr. The wells were then washed with milliQ water until no crystal violet was visible in solution. Crystal violet was solubilized using 10% acetic acid plate for 15 min and the absorbance at 570 nm was taken using the PowerWave microplate reader (BioTek, Winooski, Vt.).

[1] = Salt stability of modified and unmodified nanoparticles by UV-Vis absorbance; format: physicochemical; conditions: absorption scan, increasing NaCl
Protocol: FIG. 2. Salt stability of modified and unmodified nanoparticles measured using UV-Vis absorbance spectroscopy. Salt concentration was increased using 2 μL for unmodified nanoparticles and 15 μL of 4.11 M NaCl every 15 min. Wavelength scans of (A) 5 nm unmodified Au nanoparticles and (B) Au-Cap nanoparticles in solution with increasing NaCl concentration. Shaded area under the curves in A and B were used to calculate aggregation parameter. C. Aggregation parameter plotted with mean±SD for n=3 for increasing NaCl concentration for 5 nm unmodified Au and Au-Cap.
Peptide-modified (Au-Cap) and unmodified particles were tested to check their salt stability. Au and Au-Cap nanoparticles were added to semi-micro cuvettes and serial additions of NaCl solution were added every 15 min followed by a wavelength scan from 400-900 nm (Beckman DU 730, Fullerton, Calif.). Aggregation parameter (AP) used to quantify aggregation was calculated using the equation AP=(A−A0)/A0. A is the integral of absorbance from 600 to 700 nm, and A0 is the integral of absorbance from 600 to 700 nm of the initial solution without salt added (see FIG. 2 area under the curve).

HeLa cells = experiment: Cell toxicity (proliferation) assay; format: cell-based; conditions: all concentrations tested up to 17.9×10^10 particles/well
Protocol: FIG. 4. Cell toxicity (proliferation) assay for Au-Cap nanoparticles and DNA/PEI-Au polyplexes. HeLa cells were plated in 96-well plates (7000 cells/well) for 12-hrs before exposing the cells to Au-Cap nanoparticles or DNA/PEI-Au-Cap-RGD-ASA polyplexes at varying concentrations of Au nanoparticles (1.7 μL/well) and testing for cell proliferation. The data was normalized to absorbance of untreated samples to calculate the percent viability for each sample (n=3).
To determine whether 5 nm Au-Cap or DNA/PEI polyplexes modified with 5 nm Au-RGD-ASA were toxic to cells, the proliferation rate of HeLa cells exposed to Au-Cap or DNA/PEI-Au-RGD-ASA was compared to that of untreated cells (FIG. 4). Au-Cap nanoparticles were not toxic to cells for all the concentrations tested up to 17.9×10^10 particles/well (equivalent to 80×10^10 particles/m DNA).

T1 sequence (P06756 31-889 limits assumed): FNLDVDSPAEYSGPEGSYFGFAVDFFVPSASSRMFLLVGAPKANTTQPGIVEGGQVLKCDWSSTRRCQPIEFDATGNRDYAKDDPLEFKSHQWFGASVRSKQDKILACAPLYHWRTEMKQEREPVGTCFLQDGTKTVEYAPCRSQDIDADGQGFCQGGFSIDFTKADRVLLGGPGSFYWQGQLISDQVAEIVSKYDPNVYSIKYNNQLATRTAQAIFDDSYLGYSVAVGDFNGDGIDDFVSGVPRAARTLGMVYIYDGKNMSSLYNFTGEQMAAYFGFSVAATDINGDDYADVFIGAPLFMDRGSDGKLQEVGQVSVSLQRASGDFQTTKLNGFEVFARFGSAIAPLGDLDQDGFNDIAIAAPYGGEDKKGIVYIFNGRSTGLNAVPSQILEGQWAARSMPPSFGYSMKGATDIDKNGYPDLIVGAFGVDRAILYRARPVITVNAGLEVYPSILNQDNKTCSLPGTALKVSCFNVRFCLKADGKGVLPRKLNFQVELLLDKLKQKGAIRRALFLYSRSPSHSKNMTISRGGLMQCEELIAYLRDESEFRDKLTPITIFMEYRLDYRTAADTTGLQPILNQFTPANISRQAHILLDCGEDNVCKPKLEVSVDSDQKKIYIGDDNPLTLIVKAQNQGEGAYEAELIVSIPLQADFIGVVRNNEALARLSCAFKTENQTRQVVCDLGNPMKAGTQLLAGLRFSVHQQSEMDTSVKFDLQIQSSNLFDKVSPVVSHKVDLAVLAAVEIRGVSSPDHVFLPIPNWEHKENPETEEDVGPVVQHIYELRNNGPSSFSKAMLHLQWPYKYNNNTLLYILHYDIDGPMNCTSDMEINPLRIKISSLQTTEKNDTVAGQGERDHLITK
T1 sequence (P06756 891-1048 partner limits assumed): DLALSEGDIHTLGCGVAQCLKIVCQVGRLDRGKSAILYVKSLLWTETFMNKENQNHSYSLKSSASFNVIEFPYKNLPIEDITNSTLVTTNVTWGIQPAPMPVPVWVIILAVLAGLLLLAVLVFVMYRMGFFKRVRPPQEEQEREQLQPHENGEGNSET
T1 sequence (P05106 27-788): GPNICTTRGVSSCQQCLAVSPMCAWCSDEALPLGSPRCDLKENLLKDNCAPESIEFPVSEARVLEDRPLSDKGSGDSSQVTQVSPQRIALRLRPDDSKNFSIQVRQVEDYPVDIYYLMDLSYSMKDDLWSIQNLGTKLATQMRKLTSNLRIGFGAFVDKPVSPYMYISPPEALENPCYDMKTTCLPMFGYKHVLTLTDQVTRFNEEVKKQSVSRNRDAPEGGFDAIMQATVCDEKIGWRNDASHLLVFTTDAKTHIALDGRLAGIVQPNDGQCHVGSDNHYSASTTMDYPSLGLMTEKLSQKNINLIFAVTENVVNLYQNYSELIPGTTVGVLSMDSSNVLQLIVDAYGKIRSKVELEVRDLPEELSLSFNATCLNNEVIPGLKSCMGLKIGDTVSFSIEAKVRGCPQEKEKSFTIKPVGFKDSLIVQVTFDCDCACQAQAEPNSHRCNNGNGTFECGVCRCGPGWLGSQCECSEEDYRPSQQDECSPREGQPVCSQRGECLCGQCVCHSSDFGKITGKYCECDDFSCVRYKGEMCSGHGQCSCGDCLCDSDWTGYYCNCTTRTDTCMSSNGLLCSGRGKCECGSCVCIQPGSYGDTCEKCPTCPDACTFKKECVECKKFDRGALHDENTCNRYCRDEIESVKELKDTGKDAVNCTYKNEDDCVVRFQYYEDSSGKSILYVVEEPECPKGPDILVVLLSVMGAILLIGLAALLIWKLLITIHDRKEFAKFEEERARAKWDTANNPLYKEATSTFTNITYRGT

Equivalent amount of RGD required compared to monovalent free RGD peptide (αvβ3 integrins; n=3) | IC50 (αvβ3 integrins; equivalent RGD peptide concentration, read-out: IC50 concentration at which 50% of cell adhesion is inhibited) [nM] | Effect on cell attachment (αvβ3 integrins) | Substance | NaCl concentration up to which nanoparticles are stable [1] | Toxicity to cells (HeLa cells)
required less | ~100 |  | Au-Cap-RGD: RGD modified gold nanoparticles formed with mixtures of Cap and Cap-RGD peptides (peptide 1 Ac-CCVVVTGRGDSPSSK-OH; peptide 2 CCVVVT-OH; cysteine pairing not given here; also: mixture of Cap and Cap-RGD peptides on gold nanoparticles) |  | 
 |  | did not affect cell attachment | Au-Cap: 5 nm gold nanoparticles stabilized with self-assembling peptide CCVVVT (Cap) (CCVVVT-OH; cysteine pairing not given here; also: attached to 5 nm gold nanoparticles) | up to 500 mM | not toxic
